Results on two molecules are retold here after doi:10.1101/2024.09.02.610668 (bioRxiv, 2024).

The experiment has as its target G. gallus FANCD2 (G. gallus, UniProt Q68Y81 1-1439). The experiment in a line: cross-linking.

Sequence of G. gallus FANCD2 (Q68Y81 whole entry): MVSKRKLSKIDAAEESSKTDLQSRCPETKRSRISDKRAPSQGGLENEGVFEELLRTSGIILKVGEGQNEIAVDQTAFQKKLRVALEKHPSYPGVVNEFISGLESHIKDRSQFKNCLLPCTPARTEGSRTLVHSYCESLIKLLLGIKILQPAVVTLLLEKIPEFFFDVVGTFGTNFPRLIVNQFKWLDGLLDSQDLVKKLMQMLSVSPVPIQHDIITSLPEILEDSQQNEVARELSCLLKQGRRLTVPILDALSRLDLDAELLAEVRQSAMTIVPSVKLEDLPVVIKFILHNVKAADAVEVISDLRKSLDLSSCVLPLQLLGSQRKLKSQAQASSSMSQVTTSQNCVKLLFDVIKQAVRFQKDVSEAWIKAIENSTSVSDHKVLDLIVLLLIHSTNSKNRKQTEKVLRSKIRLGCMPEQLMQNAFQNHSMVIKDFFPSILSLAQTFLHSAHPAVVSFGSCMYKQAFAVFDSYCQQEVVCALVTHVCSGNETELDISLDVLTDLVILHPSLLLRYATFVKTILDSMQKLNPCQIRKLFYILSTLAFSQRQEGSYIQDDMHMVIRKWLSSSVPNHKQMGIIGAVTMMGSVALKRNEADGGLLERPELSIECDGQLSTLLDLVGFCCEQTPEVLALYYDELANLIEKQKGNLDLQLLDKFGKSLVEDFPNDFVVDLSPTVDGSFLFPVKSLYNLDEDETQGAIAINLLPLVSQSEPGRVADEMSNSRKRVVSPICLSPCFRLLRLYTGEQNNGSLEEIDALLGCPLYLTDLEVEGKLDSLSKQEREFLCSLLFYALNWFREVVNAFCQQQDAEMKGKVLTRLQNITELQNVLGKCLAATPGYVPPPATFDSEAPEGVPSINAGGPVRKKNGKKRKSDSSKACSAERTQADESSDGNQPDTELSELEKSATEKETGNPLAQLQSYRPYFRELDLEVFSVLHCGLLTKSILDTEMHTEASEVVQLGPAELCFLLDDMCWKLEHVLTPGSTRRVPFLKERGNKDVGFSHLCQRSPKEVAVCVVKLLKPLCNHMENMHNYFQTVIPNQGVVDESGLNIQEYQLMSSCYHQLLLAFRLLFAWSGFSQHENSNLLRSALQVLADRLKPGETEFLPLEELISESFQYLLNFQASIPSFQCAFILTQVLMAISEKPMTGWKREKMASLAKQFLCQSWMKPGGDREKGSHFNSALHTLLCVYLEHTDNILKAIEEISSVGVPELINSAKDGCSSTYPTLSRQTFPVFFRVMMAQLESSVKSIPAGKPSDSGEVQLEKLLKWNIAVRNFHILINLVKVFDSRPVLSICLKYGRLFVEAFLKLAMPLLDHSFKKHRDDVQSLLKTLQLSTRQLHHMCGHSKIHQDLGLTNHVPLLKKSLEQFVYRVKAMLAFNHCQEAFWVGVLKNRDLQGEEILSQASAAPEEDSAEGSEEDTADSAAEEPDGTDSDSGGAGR

B1: G. gallus FANCI, wild type (natural protein, UniProt B0I564 1-1338, looked up)
chain: MAQRILQLAAEGSPERLQEALQGLTEGELGDMVTRQALRGRETAALLKGIFKGSPCSQQSGVLRRLQVYKHCVSLVESGDLHVGKVSEIIGLLMLEARQLPGHALAELATLFVEVIKRGSLSNGKSLELFSTVLTALSNSKESLAYGKGELNGEEFKKQLINTLCSSKWDPQCVIHLANMFRDIPLSGEELQFVVEKVLRMFSKLDLQEIPPLVYQLLLLSAKGSKKTVLEGIISFFNQLDKRQKEEQRVPQSADLEVATVPLDQLRHVEGTVILHIVSAINLDQDIGEELIKHLKTEQQKDPGKALCPFSVSLLLSTAVKHRLQEQIFDFLKTSITRSCKDLQILQASKFLQDLCPQQYDVTAVILEVVKNSAFGWDHVTQGLVDLGFSLMESYEPKKSFGGKAAETNLGLSKMPAQQACKLGASILLETFKVHEPIRSDILEQVLNRVLTKAASPVSHFIDLLSNIVVSAPLVLQNSSSRVTETFDNLSFLPIDTVQGLLRAVQPLLKVSMSVRDSLILVLQKAIFSRQLDARKAAVAGFLLLLRNFKILGSLTSSQCSQAIGATQVQADVHACYNSAANEAFCLEILGSLRRCLSQQADVRLMLYEGFYDVLRRNSQLASSIMETLLSQIKQYYLPQQDLLPPLKLEGCIMAQGDQIFLQEPLAHLLCCIQHCLAWYKSTVHLCKGAEDEEEEEDVGFEQNFEEMLESVTRRMIKSELEDFELDKSADFSPSSGVGVKNNIYAIQVMGICEVLIEYNFKIGNFSKNKFEDVLGLFTCYNKLSEILKEKAGKNKSTLGNRIARSFLSMGFVSTLLTALFRDNAQSHEESLAVLRSSTEFMRYAVSVALQKVQQLEEMGQTDGPDGQNPEKMFQNLCKITRVLLWRYTSIPTAVEESGKKKGKSISLLCLEGLLRIFNTMQQLYAARIPQFLQALDITDGDAEEADINVTEKAAFQIRQFQRSLVNQLSSAEDDFNSKETQLLITILSTLSKLLDPGSQQFLQFLTWTVKICKENALEDLSCCKGLLTLLFSLHVLYKSPVSLLRELAQDIHACLGDIDQDVEIESRSHFAIVNVKTAAPTVCLLVLGQADKVLEEVDWLIKRLTILGSDTSEDSTQASNQTQALEKGVILQLGTLLTVFHELVQTALPAGSCVDSLLRSLSKTYAILTSLIKHYIQACRSTSNTVPGRLEKLVKLSGSHLTPQCYSFITYVQNIHSESLSFAEEKKKKKKEDETAVVSTVMAKVLRDTKPIPNLIFAIEQYEKFLIHLSKKSKVNLMQYMKLSTSRDFRINASMLDSVLQEQNTEDAENEPDNNQSGTAEQPDENQEPQKKRRRKK
As to B1, the binding result is “binds”.

B2: G. gallus FANCI, phosphomimetic S558D, S561D, T567D (natural protein, UniProt B0I564 1-1338, looked up)
chain: MAQRILQLAAEGSPERLQEALQGLTEGELGDMVTRQALRGRETAALLKGIFKGSPCSQQSGVLRRLQVYKHCVSLVESGDLHVGKVSEIIGLLMLEARQLPGHALAELATLFVEVIKRGSLSNGKSLELFSTVLTALSNSKESLAYGKGELNGEEFKKQLINTLCSSKWDPQCVIHLANMFRDIPLSGEELQFVVEKVLRMFSKLDLQEIPPLVYQLLLLSAKGSKKTVLEGIISFFNQLDKRQKEEQRVPQSADLEVATVPLDQLRHVEGTVILHIVSAINLDQDIGEELIKHLKTEQQKDPGKALCPFSVSLLLSTAVKHRLQEQIFDFLKTSITRSCKDLQILQASKFLQDLCPQQYDVTAVILEVVKNSAFGWDHVTQGLVDLGFSLMESYEPKKSFGGKAAETNLGLSKMPAQQACKLGASILLETFKVHEPIRSDILEQVLNRVLTKAASPVSHFIDLLSNIVVSAPLVLQNSSSRVTETFDNLSFLPIDTVQGLLRAVQPLLKVSMSVRDSLILVLQKAIFSRQLDARKAAVAGFLLLLRNFKILGSLTSDQCDQAIGADQVQADVHACYNSAANEAFCLEILGSLRRCLSQQADVRLMLYEGFYDVLRRNSQLASSIMETLLSQIKQYYLPQQDLLPPLKLEGCIMAQGDQIFLQEPLAHLLCCIQHCLAWYKSTVHLCKGAEDEEEEEDVGFEQNFEEMLESVTRRMIKSELEDFELDKSADFSPSSGVGVKNNIYAIQVMGICEVLIEYNFKIGNFSKNKFEDVLGLFTCYNKLSEILKEKAGKNKSTLGNRIARSFLSMGFVSTLLTALFRDNAQSHEESLAVLRSSTEFMRYAVSVALQKVQQLEEMGQTDGPDGQNPEKMFQNLCKITRVLLWRYTSIPTAVEESGKKKGKSISLLCLEGLLRIFNTMQQLYAARIPQFLQALDITDGDAEEADINVTEKAAFQIRQFQRSLVNQLSSAEDDFNSKETQLLITILSTLSKLLDPGSQQFLQFLTWTVKICKENALEDLSCCKGLLTLLFSLHVLYKSPVSLLRELAQDIHACLGDIDQDVEIESRSHFAIVNVKTAAPTVCLLVLGQADKVLEEVDWLIKRLTILGSDTSEDSTQASNQTQALEKGVILQLGTLLTVFHELVQTALPAGSCVDSLLRSLSKTYAILTSLIKHYIQACRSTSNTVPGRLEKLVKLSGSHLTPQCYSFITYVQNIHSESLSFAEEKKKKKKEDETAVVSTVMAKVLRDTKPIPNLIFAIEQYEKFLIHLSKKSKVNLMQYMKLSTSRDFRINASMLDSVLQEQNTEDAENEPDNNQSGTAEQPDENQEPQKKRRRKK
With B2, the binding result is recorded as “binds”.
